Reference: patent publication US20190382504A1 (EUREKA THERAPEUTICS, published 2019)
Substitutions are numbered along the chain they refer to.

B1: phage clone #52, anti-ESO157/HLA-A*02:01 scFv displayed on phage (scFv, V domains shown)
VH: QVQLVQSGAEVKKPGASVKVSCKASGYTFTSYGISWVRQAPGQGLEWMGWISAYNGNTNYAQKLQGRVTMTTDTSTSTAYMELRSLRSDDTAVYYCARYSGYYAGDSWGQGTLVTVSS
VL: QSVLTQPPSVSGAPGQRVTISCTGSSSNIGAGYDVHWYQQLPGTAPKLLIYGDTNRPSGVPDRISGSKSGTSASLAITGLQAEDEADYYCQSYDSNLYTYVFGTGTKVTVLG
B2: ESO157 BsAb #116 (anti-ESO157/HLA-A*02:01 scFv x anti-human CD3epsilon scFv, single chain) (bispecific antibody)
chain: QSVLTQPPSVSAAPGQKVTISCSGSSSNIGNNYVSWYQQLPGTAPKLLIYDNNKRPSGIPDRFSGSKSGTSATLGITGLQTGDEADYYCGTWDSSLSAEVFGTGTKVTVLGSRGGGGSGGGGSGGGGSLEMAQVQLVQSGPEVKKPGASMKVSCKASGYTFTKYGISWVRQAPGQGLEWMGWISADSGKTSYAQNLQGRVSLTIDTSTATAYMELRSLRSDDTAVYYCARDDDSWGQGTLVTVSS
B3: ESO157 BsAb #35 (anti-ESO157/HLA-A*02:01 scFv x anti-human CD3epsilon scFv, single chain) (bispecific antibody, not shown: small tags and cut ends)
scFv: QSVVTQPPSVSAAPGQKVTISCSGSSSNIGNNYVSWYQQLPGTAPKLLIYDNNKRPSGIPDRFSGSKSGTSATLGITGLQTGDEADYYCGTWDSSLSAWVFGGGTKLTVLGSRGGGGSGGGGSGGGGSLEMAQVQLVQSGAEVKKPGSSVKVSCKASGDTFSSYSISWVRQAPGQGLEWMGRIIPILGIANYAQKYQGRVTLSADKSTSTSYMELNSLRSEDTAVYYCARDWSYSIDYWGQGTLVTVSS
notes: also called NY-ESO-1 BsAb #35
B4: phage clone #148, anti-ESO157/HLA-A*02:01 scFv displayed on phage (scFv, V domains shown)
VH: EVQLVQSGAEVKKPGASVKVSCKASGGTFSSYAISWVRQAPGQGLEWMGGIIPIFGTANYAQKFQGRVTITADKSTSTAYMELSSLRSEDTAVYYCARSYWSWTPYDPWGQGTLVTVSS
VL: LPVLTQPPSVSVAPGKTARITCGGNNIGSKSVHWYQQKPGQAPVLVIYYDSDRPSGIPERFSGSNSGNTATLTISRVEAGDEADYYCQVWDSSSDHYVFGTGTKVTVLG
B5: phage clone #66, anti-ESO157/HLA-A*02:01 scFv displayed on phage (scFv, V domains shown)
VH: EVQLVESGAEVKRPGASVKVSCKASGYTFTSYGISWVRQAPGQGLEWMGRFIPNLNKGNSAHKFEGRVSFTADKFTNTAYMELRGLKSDDTAVYYCARGDYGSDQWGQGTLVTVSS
VL: QSVLTQPPSVSGAPGQRVTISCTGSSSNIGAGYDVHWYQQLPGTAPKLLIYGNSNRPSGVPDRFSGSKSGTSASLAITGLQAEDEADYYCQSYDSSLSGSWVFGGGTKLTVLG
B6: phage clone #76, anti-ESO157/HLA-A*02:01 scFv displayed on phage (scFv, V domains shown)
VH: EVQLVQSGAEVKKPGSSVKVSCKASGGTFSSYAISWVRQAPGQGLEWMGGIIPIFGTANYAQKFQGRVTITADESTSTAYMELSSLRSEDTAVYYCARYDSYVYDEWGQGTLVTVSS
VL: B5 VL with L4V, V10L, T23N, S26G, S100W, W101G, V102I
B7: phage clone 35-14, affinity maturation variant of clone #35 (scFv, V domains shown)
VH: QVQLVQSGAEVKKPGSSVKVSCKASGDTFSSYYISWVRQAPGQGLEWMGRIIPILGIANYAQKYQGRVTLSADKSTSTSYMELNSLRSEDTAVYYCAREWSYSIDYWGQGTLVTVSS
VL: QSVVTQPPSVSAAPGQKVTISCSGSSSNIGNNYVSWYQQLPGTAPELLIYDNNKRPSGIPDRFSGSKSGTSATLGITGLQTGDEADYYCGTWDSSLSAWVFGGGTKLTVL
B8: ESO157 BsAb #52 (anti-ESO157/HLA-A*02:01 scFv x anti-human CD3epsilon scFv, single chain) (bispecific antibody)
chain: QSVLTQPPSVSGAPGQRVTISCTGSSSNIGAGYDVHWYQQLPGTAPKLLIYGDTNRPSGVPDRISGSKSGTSASLAITGLQAEDEADYYCQSYDSNLYTYVFGTGTKVTVLGSRGGGGSGGGGSGGGGSLEMAQVQLVQSGAEVKKPGASVKVSCKASGYTFTSYGISWVRQAPGQGLEWMGWISAYNGNTNYAQKLQGRVTMTTDTSTSTAYMELRSLRSDDTAVYYCARYSGYYAGDSWGQGTLVTVSS
B9: phage clone #146, anti-ESO157/HLA-A*02:01 scFv displayed on phage (scFv, V domains shown)
VH: EVQLVQSGAEVKKPGASVKVSCKVSGYTLTDLPMHWVRQAPGKGLEWMGGFDPEDGEIIYAQKFQGRVTMTEDTFTDTAYVELSSLRSEDTAVYYCARYVPYVSYSDSWGQGTLVTVSS
VL: not shown
B10: phage clone #116, anti-ESO157/HLA-A*02:01 scFv displayed on phage (scFv, V domains shown)
VH: QVQLVQSGPEVKKPGASMKVSCKASGYTFTKYGISWVRQAPGQGLEWMGWISADSGKTSYAQNLQGRVSLTIDTSTATAYMELRSLRSDDTAVYYCARDDDSWGQGTLVTVSS
VL: QSVLTQPPSVSAAPGQKVTISCSGSSSNIGNNYVSWYQQLPGTAPKLLIYDNNKRPSGIPDRFSGSKSGTSATLGITGLQTGDEADYYCGTWDSSLSAEVFGTGTKVTVLG
B11: phage clone #35, anti-ESO157/HLA-A*02:01 scFv displayed on phage (scFv, V domains shown)
VH: B7 VH with Y33S, E99D
VL: B10 VL with L4V, E99W, T103G, V107L
notes: also called parental phage clone #35
B12: phage clone 35-19, affinity maturation variant of clone #35 (scFv, V domains shown)
VH: B7 VH with V2E, E99D
VL: B10 VL with L4V, S26I, K54M, E99W, T103G, V107L
notes: also called variant 35-19

How the values were obtained:
[1] = target: T1, Bio-C9V mutant; test: phage ELISA: streptavidin plate coated with biotinylated peptide/HLA-A*02:01 monomer, phage detected with HRP-conjugated anti-M13 antibody, absorbance at 450 nm
T1 construct: also called biotinylated ESO157 C9V/HLA-A*02:01 complex monomer

[2] = target: ESO157 A1 peptide (…)/HLA-A*02:01 complex on T2 cells (human); test: FACS, peptide-pulsed T2 cells
[3] = target: ESO157 A6 peptide (…)/HLA-A*02:01 complex on T2 cells (human); test: FACS, peptide-pulsed T2 cells
[4] = target: T2, HLA-A*02:01 on T2 cells without peptide loading (human); test: FACS, peptide-pulsed T2 cells
T2 construct: TAP-deficient T2 cells, no peptide added; also called No peptide; T2 cells with no peptide loaded

[5] = target: T3, ESO157 wild type peptide (…)/HLA-A*02:01 complex on cells (human); test: FACS, peptide-pulsed T2 cells
T3 construct: also called ESO157-loaded T2 cells

[6] = target: ESO157 A4 peptide (…)/HLA-A*02:01 complex on T2 cells (human); test: FACS, peptide-pulsed T2 cells
[7] = target: ESO157 A7 peptide (…)/HLA-A*02:01 complex on T2 cells (human); test: FACS, peptide-pulsed T2 cells
[8] = target: ESO157 A5 peptide (…)/HLA-A*02:01 complex on T2 cells (human); test: FACS, peptide-pulsed T2 cells
[9] = target: ESO157 A3 peptide (…)/HLA-A*02:01 complex on T2 cells (human); test: FACS, peptide-pulsed T2 cells
[10] = target: ESO157 A8 peptide (…)/HLA-A*02:01 complex on T2 cells (human); test: FACS, peptide-pulsed T2 cells
[11] = target: biotinylated recombinant ESO157/HLA-A*02:06 complex (human); test: BLI (Octet QK), biotinylated pMHC on streptavidin sensor, BsAb 10 ug/mL
[12] = target: biotinylated recombinant ESO157/HLA-A*02:02 complex (human); test: as above
[13] = target: T4, biotinylated recombinant ESO157 wild type peptide/HLA-A*02:01 complex monomer (human); test: SPR (Biacore X100), biotinylated pMHC on streptavidin chip, BsAb as analyte
T4 construct: also called recombinant ESO157/HLA-A*02:01 complex; biotin-labelled ESO157 wild type peptide/HLA-A*02:01 complex

[14] = target: biotinylated recombinant ESO157/HLA-A*02:03 complex (human); test: BLI (Octet QK), biotinylated pMHC on streptavidin sensor, BsAb 10 ug/mL
[15] = target: biotinylated recombinant ESO157/HLA-A*02:02 complex (human); test: as above; remark: listed apart in the source
[16] = target: T5, ESO157 homolog 3 peptide (…)/HLA-A*02:01 on T2 cells (human); test: FACS, phage on T2 cells, 50 ug/ml peptide;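 further: binding of phage clones to peptide/MHC complexes detected by flow cytometry after staining with an anti-M13 antibody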
T5 construct: also called ESO157 H3

[17] = target: T6, ESO157 homolog 2 peptide (…)/HLA-A*02:01 on T2 cells (human); test: FACS, phage on T2 cells, 50 ug/ml peptide;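 further: binding of phage clones to peptide/MHC complexes detected by flow cytometry after staining with an anti-M13 antibody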
T6 construct: also called ESO157 H2

[18] = target: T7, ESO157 homolog 1 peptide (…)/HLA-A*02:01 on T2 cells (human); test: FACS, phage on T2 cells, 50 ug/ml peptide;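 further: binding of phage clones to peptide/MHC complexes detected by flow cytometry after staining with an anti-M13 antibody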
T7 construct: also called ESO157 H1

[19] = target: T8, ESO157 homolog 4 peptide (…)/HLA-A*02:01 on T2 cells (human); test: FACS, phage on T2 cells, 50 ug/ml peptide;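 further: binding of phage clones to peptide/MHC complexes detected by flow cytometry after staining with an anti-M13 antibody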
T8 construct: also called ESO157 H4

[20] = target: T9, ESO157 homolog 5 peptide (…)/HLA-A*02:01 on T2 cells (human); test: FACS, phage on T2 cells, 50 ug/ml peptide
T9 construct: also called ESO157 H5

[21] = target: biotinylated recombinant ESO157/HLA-A*02:05 complex (human); test: BLI (Octet QK), biotinylated pMHC on streptavidin sensor, BsAb 10 ug/mL

Row | Binder | binding result [1] | MFI [2] | MFI [3] | MFI [4] | MFI [5] | MFI [6] | MFI [7] | MFI [8] | MFI [9] | MFI [10] | further results
1 | B1 | binds | 14900 | 1880 | 113 | 14500 | 4740 | 9890 | 107 | 17700 | 19200 | 
2 | B2 |  |  |  |  |  |  |  |  |  |  | Kd [11]: 0.8 nM; Kd [12]: 1.8 nM
3 | B3 |  |  |  |  |  |  |  |  |  |  | Kd [13]: 14.1 nM; koff [13]: 0.00128 s⁻¹; kon [13]: 90900 M⁻¹ s⁻¹; Kd [14]: 50 nM; Kd [11]: 78 nM; Kd [15]: 22 nM
4 | B4 | binds | 27700 | 17500 | 208 |  | 240 | 62400 | 14200 | 52900 | 58300 | 
5 | B5 | binds | 82400 | 19800 | 157 | 67000 | 48100 | 64400 | 748 | 38400 | 90500 | 
6 | B6 | binds | 14600 |  | 131 | 7460 | 191 | 6200 | 160 | 42900 | 12700 | 
7 | B7 |  |  |  |  |  |  |  |  |  |  | MFI [16]: 20; MFI [17]: 19.8; MFI [18]: 20.8; MFI [19]: 19.5; MFI [20]: 18.8
8 | B8 |  |  |  |  |  |  |  |  |  |  | Kd [14]: 82 nM; Kd [21]: 26 nM; Kd [11]: 140 nM; Kd [12]: 63 nM
9 | B9 | binds | 9300 |  | 132 |  | 3200 | 333 | 180 | 181 | 18600 | 
10 | B10 | binds | 19600 | 2640 | 502 | 11300 | 1150 | 14400 | 1340 | 16500 | 3400 | 
11 | B11 |  | 42400 |  |  | 17500 | 155 | 419 | 163 | 10200 |  | MFI [17]: 17.6; MFI [20]: 13.4
12 | B12 |  |  |  |  |  |  |  |  |  |  | MFI [16]: 21.7; MFI [17]: 21.9; MFI [18]: 20.7; MFI [19]: 21.6; MFI [20]: 60.2
